The subject of one experiment is oncogenic ras-p-21. As to conditions: background statement; cited from earlier work.
For the next experiment, the target named is T1, human oncogenic ras p21 (human).
T1 chain: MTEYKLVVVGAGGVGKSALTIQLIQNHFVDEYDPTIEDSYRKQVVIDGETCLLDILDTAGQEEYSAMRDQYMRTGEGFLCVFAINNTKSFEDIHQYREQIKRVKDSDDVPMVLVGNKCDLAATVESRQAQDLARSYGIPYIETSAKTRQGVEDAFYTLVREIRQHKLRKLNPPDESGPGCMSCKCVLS
Description: cell-based or functional assay.

Take `N[C@@H](Cc1ccc(O)cn1)C(=O)O` [Azatyrosine]: in the experiment with oncogenic ras-p-21, the “inhibition of oncogenic ras-p-21” value is reported as “strongly inhibits”.

B1: peptide of SEQ ID NO:1, Ile-Lys-Arg-Val-Lys-Asp (peptide)
peptide: IKRVKD
Take B1: the “Present Inhibition of ras-Induced Maturation” value (“Present Inhibition” for short) in the experiment with human oncogenic ras p21 was 76%.

B2: peptide of SEQ ID NO:8, Gly-Asn-Lys-Cys-Asp-Leu-Ala-Ala-Arg-Thr-Val-Glu (peptide)
peptide: GNKCDLAARTVE
On to B2, for which the “Present Inhibition” value with human oncogenic ras p21 was 92%.

B3: Lys-Arg-Val (peptide)
peptide: KRV
For B3, in the experiment with human oncogenic ras p21, the “Present Inhibition” value amounted to 22%.

B4: peptide of SEQ ID NO:9, Cys-Asp-Leu-Ala-Ala-Arg-Thr (peptide)
peptide: CDLAART
Regarding B4, the “Present Inhibition” value in the experiment with human oncogenic ras p21 is 65%.

B5: peptide of SEQ ID NO:4, Asp-Leu-Ala-Ala (peptide)
peptide: DLAA
With B5, the “Present Inhibition” value in the experiment with human oncogenic ras p21 came out at 22%.

B6: peptide of SEQ ID NO:2, Lys-Cys-Asp-Leu-Ala (peptide)
peptide: KCDLA
On to B6, for which the “Present Inhibition” value in the experiment with human oncogenic ras p21 came out at 38%.

B7: Val-Val-Ile (peptide)
peptide: VVI
On to B7, for which, in the experiment with human oncogenic ras p21, the “Present Inhibition” value came to 34%.

B8: peptide of SEQ ID NO:7, Tyr-Arg-Glu-Gln-Ile-Lys-Arg-Val-Lys-Asp-Ser-Asp-Asp-Val-Pro (peptide)
peptide: YREQIKRVKDSDDVP
In the case of B8, the “Present Inhibition” value in the experiment with human oncogenic ras p21 was found to be 56%.

B9: peptide of SEQ ID NO:6, Thr-Ile-Glu-Asp-Ser-Tyr-Arg-Lys-Gln-Val-Val-Ile-Asp (peptide)
peptide: TIEDSYRKQVVID
For B9, in the experiment with human oncogenic ras p21, the “Present Inhibition” value turned out to be 28%.
